These results are taken from paper PMC13276077.

Series [1] has as its target HisMBP-DNMT3A 1-427 (UniProt Q9Y6K1 1-427). The experiment in a line: EMSA; 20 mM HEPES pH 7.5, 75 mM NaCl, 125 mM KCl, 50 uM EDTA, 2.5 mM beta-mercaptoethanol, 5% glycerol, BSA, 1.58 uM 47 bp competitor DNA (nucleosome assays; absent with free DNA), room temperature 30 min. As to conditions: protein: recombinant; tags: His-MBP; label: 5' 6-FAM; blunt.
For series [2], the target named is HisMBP-MeCP2 205-257 (DIR) (Homo sapiens, UniProt P51608 205-257). The series is described as above. As to conditions: protein: recombinant; tags: His-MBP; label: 5' 6-FAM; blunt.
Series [3] deals with HisMBP-MeCP2 272-309 (Homo sapiens, UniProt P51608 272-309). The description is as above. As to conditions: protein: recombinant; tags: His-MBP; label: 5' 6-FAM; blunt.
The target of series [4] is HisMBP-MeCP2 205-309 (Homo sapiens, UniProt P51608 205-309). The description is as above. As to conditions: protein: recombinant; tags: His-MBP; label: 5' 6-FAM; blunt.
Series [5] addresses HisMBP-MeCP2 258-309 (Homo sapiens, UniProt P51608 258-309). The series is described as above. The conditions noted are these: protein: recombinant; tags: His-MBP; label: 5' 6-FAM; blunt.
The target in series [6] is HisMBP-DNMT3A 1-427 K54A K56A (UniProt Q9Y6K1 1-427, K54A;K56A). The series is described as above. As to conditions: protein: recombinant; tags: His-MBP; label: 5' 6-FAM; blunt.
In series [7] the target is HisMBP-MeCP2 162-309 (Homo sapiens, UniProt P51608 162-309). The series is described as above. As to conditions: protein: recombinant; tags: His-MBP; label: 5' 6-FAM; blunt.
Series [8] deals with MeCP2 MBD;histone octamer (Homo sapiens;Homo sapiens, UniProt P51608;P0C0S8;P62807;P68431;P62805 77-167;2-130;2-126;2-136;2-103, |H3.1 C96S;C110A). As to the kind of experiment: EMSA; 20 mM HEPES pH 7.5, 75 mM NaCl, 125 mM KCl, 50 uM EDTA, 2.5 mM beta-mercaptoethanol, 5% glycerol, BSA, 1.58 uM 47 bp competitor DNA (nucleosome assays); absent w.
Series [9] addresses MeCP2 full-length, e2 isoform;histone octamer (Homo sapiens;, UniProt P51608;P0C0S8;P62807;P68431;P62805 1-486;2-130;2-126;2-136;2-103, |H2B T115C;H3.1 C96S;C110A). The series is described as above.
Series [10] addresses MeCP2 MBD;histone octamer, tailless H3 (Homo sapiens;Homo sapiens, UniProt P51608;P0C0S8;P62807;P68431;P62805 77-167;2-130;2-126;26-136;2-103, |H3.1 del1-24;A25C;C96S;C110A). As to the kind of experiment: EMSA; H3-tailless histone octamer; 20 mM HEPES pH 7.5, 75 mM NaCl, 125 mM KCl, 50 uM EDTA, 2.5 mM beta-mercaptoethanol, 5% glycerol, BSA, 1.58 uM 47 bp competitor DNA (nucleosome assays); absent w. Background: Mobility shift assays separate free from complexed probe on a gel.

Series [11] deals with MeCP2 MBD;histone octamer, H3Kc27me3 (Homo sapiens;Homo sapiens, UniProt P51608;P0C0S8;P62807;P68431;P62805 77-167;2-130;2-126;2-136;2-103, |H3.1 K27C (trimethyl-lysine analogue, Kc27me3);C96S;C110A). As to the kind of experiment: EMSA; H3K27me3 (H3Kc27me3) histone octamer; 20 mM HEPES pH 7.5, 75 mM NaCl, 125 mM KCl, 50 uM EDTA, 2.5 mM beta-mercaptoethanol, 5% glycerol, BSA, 1.58 uM 47 bp competitor DNA (nucleosome assays); absent w.

Series [12] addresses MeCP2 full-length, e2 isoform;histone H1.0 1-97;histone octamer (Homo sapiens;Homo sapiens;, UniProt P51608;P07305;P0C0S8;P62807;P68431;P62805 1-486;1-97;2-130;2-126;2-136;2-103, ||H2B T115C;H3.1 C96S;C110A). As to the kind of experiment: EMSA; H1.0 residues 1-97 pre-bound (chromatosome); 20 mM HEPES pH 7.5, 75 mM NaCl, 125 mM KCl, 50 uM EDTA, 2.5 mM beta-mercaptoethanol, 5% glycerol, BSA, 1.58 uM 47 bp competitor DNA (nucleosome assays); absent w.

Series [13] concerns the target MeCP2 full-length, e2 isoform;histone H1.0 25-97;histone octamer (Homo sapiens;Homo sapiens;, UniProt P51608;P07305;P0C0S8;P62807;P68431;P62805 1-486;25-97;2-130;2-126;2-136;2-103, ||H2B T115C;H3.1 C96S;C110A). As to the kind of experiment: EMSA; H1.0 residues 25-97 pre-bound (chromatosome); 20 mM HEPES pH 7.5, 75 mM NaCl, 125 mM KCl, 50 uM EDTA, 2.5 mM beta-mercaptoethanol, 5% glycerol, BSA, 1.58 uM 47 bp competitor DNA (nucleosome assays); absent w.

Chain of HisMBP-DNMT3A 1-427 (Q9Y6K1 1-427): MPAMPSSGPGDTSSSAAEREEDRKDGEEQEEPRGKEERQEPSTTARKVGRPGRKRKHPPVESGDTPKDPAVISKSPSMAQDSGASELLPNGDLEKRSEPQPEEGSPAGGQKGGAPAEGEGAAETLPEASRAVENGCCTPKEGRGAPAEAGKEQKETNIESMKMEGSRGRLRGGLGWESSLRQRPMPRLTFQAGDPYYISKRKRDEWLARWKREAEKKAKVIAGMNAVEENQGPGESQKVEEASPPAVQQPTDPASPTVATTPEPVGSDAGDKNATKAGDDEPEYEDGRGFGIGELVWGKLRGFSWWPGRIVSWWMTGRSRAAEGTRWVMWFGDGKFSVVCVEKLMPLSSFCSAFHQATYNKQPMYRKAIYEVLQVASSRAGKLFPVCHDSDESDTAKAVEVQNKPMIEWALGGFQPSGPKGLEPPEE
Chain of HisMBP-DNMT3A 1-427 K54A K56A (Q9Y6K1 1-427 K54A/K56A): as the sequence (Q9Y6K1 1-427) above, with K54A, K56A counted along it

B1: 40 bp dsDNA (dsDNA)
DNA 1: AATACGCGGCCGCCCTGGAGAATCCCGGTGCCGAGGCCGC
DNA 2: GCGGCCTCGGCACCGGGATTCTCCAGGGCGGCCGCGTATT
On to B1, for which the Kd (as a rule, a measure of binding affinity in units of concentration) in [1] was found to be 87.8 ± 5.2 nM; in [2], 216 ± 9.2 nM; in series [4], 77.5 ± 4.8 nM; in [5], 167 ± 8.5 nM; in [6], 367 ± 27.5 nM; in series [7], 31.6 ± 1.7 nM. Also, the binding result in [3] is given as “no binding”.

B2: 15-N601-15 nucleosome 81 meCpA (nucleosome)
DNA 1: ATGGAACACATTGCACAGGATGTATATATCTGACACGTGCCTGGAGACTAGGGAGTAATCCCCTTGGCGGTTAAAACGCGGGGGACAGCGCGTACGTGCGTTTAAGCGGTGCTAGAGCTGTCTACGACCAATTGAGCGGCCTCGGCACCGGGATTCTCCAGGGCGGCCGCGTATT
DNA 2: AATACGCGGCCGCCCTGGAGAATCCCGGTGCCGAGGCCGCTCAATTGGTCGTAGACAGCTCTAGCACCGCTTAAACGCACGTACGCGCTGTCCCCCGCGTTTTAACCGCCAAGGGGATTACTCCCTAGTCTCCAGGCACGTGTCAGATATATACATCCTGTGCAATGTGTTCCAT
modifications: linker meCpA 81 bp from dyad
With B2, the Kd was 424 nM in [8]; 141 nM in [9]; 334 nM in series [10]; 442 nM in [11]; 382 nM in [12]; 295 nM in [13].
